# From US10774132B2, “Ultralong complementarity determining regions and uses thereof” (THE SCRIPPS RESEARCH INSTITUTE, priority 2012, dated 2020)
# System: Human mPB CD34+ cells
# Experiment: Proliferative activity on human granulocyte progenitors (flow cytometry)
# Assay type: cell-based
# Settings: for Number of CD45RA-CD41-: 7 days, flow cytometry
# Procedure: Human mPB CD34^+ cells were purchased from AllCells. Cells were resuspended in HSC expansion medium (StemSpan SFEM, StemCell Technologies) supplemented with 1× antibiotics and the following recombinant human cytokines: thrombopoietin, IL6, Flt3 ligand, and stem cell factor (100 ng/mL, R & D Systems), then plated in 96-well plates (1000 cells per well), with varied concentrations of BLV1H12-bGCSF fusion antibodies. Cells were cultured for 7 days at 37° C. in a 5% CO2 incubator, then analyzed by flow cytometry to measure cell number and expression of CD45ra and CD41. Cells were stained in staining medium (HBSS supplemented with 2% FBS and 2 mM EDTA) at 4° C. for 1 h with PECy7 anti-CD45ra and eFluor 450 anti-CD41 (eBiosciences), then washed with staining medium and analyzed. Multicolor analysis for cell phenotyping was performed on a LSR II flow cytometer (Becton Dickinson). FIGS. 10A-10E and Tables 9-10 show the human granulocyte progenitor cell proliferative activities of the Ab-GCSF fusion antibodies.
molecule,measurement,setting,value
"Ab: bovine BLV1H12 antibody with ultralong CDR3, no insertion; scaffold of the fusions and control (antibody) heavy: QVQLRESGPSLVKPSQTLSLTCTASGFSLSDKAVGWVRQAPGKALEWLGSIDTGGNTGYNPGLKSRLSITKDNSKSQVSLSVSSVTTEDSATYYCTSVHQETKKYQSCPDGYRERSDCSNRPACGTSDCCRVSVFGNCLTTLPVSYSYTYNYEWHVDVWGQGLLVTVSS light: QAVLNQPSSVSGSLGQRVSITCSGSSSNVGNGYVSWYQLIPGSAPRTLIYGDTSRASGVPDRFSGSRSGNTATLTISSLQAEDEADYFCASAEDSSSNAVFGSGTTLTVLGQPKSPPSVTLFPPSTEELNGNKATLVCLISDFYPGSVTVVWKADGSTITRNVETTRASKQSNSKYAASSYLSLTSSDWKSKGSYSCEVTHEGSTVTKTVKPSECS",proliferative activity on human granulocyte progenitor cells,,lack of proliferative activity
same,Number of CD45RA-CD41-,0.28959 ng/mL,3666
same,Number of CD45RA-CD41-,0.86877 ng/mL,3839
same,Number of CD45RA-CD41-,2.60631 ng/mL,3852
same,Number of CD45RA-CD41-,23.45679 ng/mL,3519
same,Number of CD45RA-CD41-,70.37037 ng/mL,3541
same,Number of CD45RA-CD41-,211.11111 ng/mL,3606
same,Number of CD45RA-CD41-,5700 ng/mL,4100
